Data reported in patent US12012599B2, “Compositions and methods for modulating left-right differentiation factor (LEFTY) and bone morphogenic factor (BMP)” (CZ Biohub SF LLC, priority 2018, dated 2024).
Read-outs that look alike come from different tables or passages of the source.

Experiments:
BMPR2 = assay: In situ target-mediated (proximity) ligation assay, BMPR2; format: binding
Text: FIGS. 5A-5H. LEFTY1 inhibits pSMAD2 and pSMAD5 in the basal mammary epithelial cells. […] KRT8 was used to stain the luminal cells and SMA for basal cells (Magnification 400×). […] Gapdh was used as a housekeeping gene. […] Ten different fields were counted per condition (n=3). Data are represented as median±S.D. Statistical analysis, (a and b) Student's T-test, * p<0.05; (h) One-way ANOVA with Dunnet's adjustment, ****p<0.0001.
FIGS. 5I-5J: LEFTY1 preferentially interacts with BMPR2. […] BMP7-BMPR2 interaction was used as a positive control, and mouse and rabbit IgGs were used as technical negative controls. The interaction of LEFTY with Wnt receptor LRP6 was analyzed as a biological negative control. […] Data are represented as median±S.D. Statistical analysis, one-way ANOVA post-hoc Tukey multiple comparison, ****p<0.0001, ***p<0.001; unless stated analysis is non-significant with p>0.05.
Since BMPR2 is upstream of pSMAD1/5/8, we reasoned that BMPR2 could serve as a common BMP Type II receptor that mediates the BMP7/LEFTY1 axis. […] The interaction between BMP7 and BMPR2 was used as a positive control (p<0.0001) (FIG. 5G-5H and FIG. 7B).
Next, we assessed the interaction of LEFTY with different type I and type II TGF-β receptors. […] We also analyzed the interaction of LEFTY with Wnt receptor LRP6 as a biological negative control. […]

pSMAD5 = assay: Western-blot of pSMAD5 in Comma-D mammary epithelial cells; format: cell-based, mouse; settings: Comma-D cells blocked with LEFTY1 200 ng/ml 1 hour, stimulated with BMP7 and Nodal 50 ng/ml 30 minutes
Description: FIGS. 4J-4L. LEFTY1 inhibits pSMAD2 and pSMAD5 in Comma-D mouse mammary epithelial cells. […] Comma-D cells were serum starved 16 hours and blocked with LEFTY1 (200 ng/ml) for 1 hour and stimulated with BMP7 (50 ng/ml) and Nodal (50 ng/ml) for 30 minutes in serum free media. Cells were harvested in 1×RIPA Buffer with 1× protease and phosphatase inhibitors on ice. Lysates were diluted in 4× sample buffer and boiled at 95° C. for 5 minutes and then run on a 10% SDS-page gradient gels at 100V for 1 hour. […] The membranes were incubated with either pSMAD2, pSMAD5, total SMAD2/3 or SMAD1/5/8 antibodies overnight. Incubation with secondary antibodies containing fluorophores at 1:20,000 dilution (IRDye 800CW conjugated goat anti-rabbit #926-32211, IRDye 680 conjugated goat anti-mouse antibodies #926-32220, LI-COR Biosciences, Lincoln, NE) enabled visualization on the Odyssey Infrared Imaging System from LI-COR Biosciences. […] Data are represented as median±S.D. Statistical analysis, one-way ANOVA with post-hoc Tukey multiple comparison, ****p<0.0001, ***p<0.001; unless stated analysis is non-significant with p>0.05.

pSMAD5 activation = assay: pGL3 BRE-luciferase reporter in 3T3-L1 fibroblasts; format: cell-based; settings: 16 hours
Description: FIGS. 7A-7E. LEFTY1 interaction with BMPR2 inhibits the phosphorylation of SMAD5. […] Ten different fields were counted per condition (n=3). […] 48 hours after transfection, cells were washed and incubated with different concentrations of BMP7 (from 0-800 ng/ml) for 16 hours prior to collection of the cells. […] 48 hours after transfection, cells were washed and incubated with different concentrations of LEFTY1 (from 0-200 ng/ml) for 16 hours prior to collection of the cells. […] 48 hours after transfection, cells were washed and incubated with different concentrations of BMP7 and LEFTY1 at the indicated concentrations for 16 hours prior to collection of the cells. Data are represented as median±S.D. Statistical analysis, one-way ANOVA with Dunnet's adjustment, *p<0.05; **p<0.01; ****p<0.0001.
FIGS. 7F-7I: pSMAD5 activation in the presence of LEFTY1, BMP2 and BMP4. […] 48 hours after transfection, cells were washed and incubated with different concentrations of BMP2 (from 0-800 ng/ml) for 16 hours prior to collection of the cells. […] 48 hours after transfection, cells were washed and incubated with different concentrations of BMP2 and LEFTY1 for 16 hours prior to collection of the cells. FIG. 7H and FIG. 7I show 3T3-L1 fibroblasts transfected with pGL3 BRE-luciferase plasmid. […]
We also evaluated whether LEFTY1 could inhibit pSMAD5 activation induced by other BMPs. […]

B1: LEFTY1: left-right determination factor 1, secreted TGF-β superfamily protein; generic LEFTY may mean LEFTY1 or LEFTY2 (protein, UniProt O75610 77-366, looked up)
Left-right determination …: RFSQSFREVAGRFLALEASTHLLVFGMEQRLPPNSELVQAVLRLFQEPVPKAALHRHGRLSPRSARARVTVEWLRVRDDGSNRTSLIDSRLVSVHESGWKAFDVTEAVNFWQQLSRPRQPLLLQVSVQREHLGPLASGAHKLVRFASQGAPAGLGEPQLELHTLDLGDYGAQGDCDPEAPMTEGTRCCRQEMYIDLQGMKWAENWVLEPPGFLAYECVGTCRQPPEALAFKWPFLGPRQCIASETDSLPMIVSIKEGGRTRPQVVSLPNMRVQKCSCASDGALVPRRLQP
protein interaction with BMPR2 (BMPR2): significant protein interaction
protein interaction with BMPR2 (BMPR2; listed as LEFTY): interacted preferentially
pSMAD5 signal (pSMAD5): inhibited
inhibition of BMP7-mediated pSMAD5 activation (pSMAD5 activation): inhibit BMP7-mediated pSMAD5 activation in a dose-dependent fashion
inhibition of pSMAD5 activation induced by BMP2 or BMP4 (pSMAD5 activation): less of an inhibitory effect
